Test results reported in paper PMC12098889, “Structural insight into PIF6-mediated red light signal transduction of plant phytochrome B” (Cell Discovery, 2025).
Residue numbers refer to the chain shown, from its start. One block for each binder: values may come before it.

Legend:
Conditions in all cases: both partners purified
[1] = biological target: T1, phytochrome B (phyB), full length (1‒1172) (Arabidopsis, UniProt P14713 1-1172, PΦB chromophore covalently linked to C357); assay: SEC; Superose 6 Increase 10/300 GL; 25 mM Tris-HCl pH 8.0, 150 mM NaCl, 5 mM DTT; red light-irradiated phyB; peak fractions on SDS-PAGE
T1 construct: Arabidopsis phytochrome B, residues 1-1172, At2g18790; The same protein is Pr in the dark and Pfr after red light; The purification uses Ni-NTA, but no His tag on phyB is described; also called wild-type phyB; phyB-Pr (dark); source: E. coli BL21(DE3), co-expressed with HO1 and HY2, purified (Ni-NTA, anti-FLAG resin, Source Q); not shown: 3× Flag ([residues removed]), N-terminal, kept
T1 sequence (looked up): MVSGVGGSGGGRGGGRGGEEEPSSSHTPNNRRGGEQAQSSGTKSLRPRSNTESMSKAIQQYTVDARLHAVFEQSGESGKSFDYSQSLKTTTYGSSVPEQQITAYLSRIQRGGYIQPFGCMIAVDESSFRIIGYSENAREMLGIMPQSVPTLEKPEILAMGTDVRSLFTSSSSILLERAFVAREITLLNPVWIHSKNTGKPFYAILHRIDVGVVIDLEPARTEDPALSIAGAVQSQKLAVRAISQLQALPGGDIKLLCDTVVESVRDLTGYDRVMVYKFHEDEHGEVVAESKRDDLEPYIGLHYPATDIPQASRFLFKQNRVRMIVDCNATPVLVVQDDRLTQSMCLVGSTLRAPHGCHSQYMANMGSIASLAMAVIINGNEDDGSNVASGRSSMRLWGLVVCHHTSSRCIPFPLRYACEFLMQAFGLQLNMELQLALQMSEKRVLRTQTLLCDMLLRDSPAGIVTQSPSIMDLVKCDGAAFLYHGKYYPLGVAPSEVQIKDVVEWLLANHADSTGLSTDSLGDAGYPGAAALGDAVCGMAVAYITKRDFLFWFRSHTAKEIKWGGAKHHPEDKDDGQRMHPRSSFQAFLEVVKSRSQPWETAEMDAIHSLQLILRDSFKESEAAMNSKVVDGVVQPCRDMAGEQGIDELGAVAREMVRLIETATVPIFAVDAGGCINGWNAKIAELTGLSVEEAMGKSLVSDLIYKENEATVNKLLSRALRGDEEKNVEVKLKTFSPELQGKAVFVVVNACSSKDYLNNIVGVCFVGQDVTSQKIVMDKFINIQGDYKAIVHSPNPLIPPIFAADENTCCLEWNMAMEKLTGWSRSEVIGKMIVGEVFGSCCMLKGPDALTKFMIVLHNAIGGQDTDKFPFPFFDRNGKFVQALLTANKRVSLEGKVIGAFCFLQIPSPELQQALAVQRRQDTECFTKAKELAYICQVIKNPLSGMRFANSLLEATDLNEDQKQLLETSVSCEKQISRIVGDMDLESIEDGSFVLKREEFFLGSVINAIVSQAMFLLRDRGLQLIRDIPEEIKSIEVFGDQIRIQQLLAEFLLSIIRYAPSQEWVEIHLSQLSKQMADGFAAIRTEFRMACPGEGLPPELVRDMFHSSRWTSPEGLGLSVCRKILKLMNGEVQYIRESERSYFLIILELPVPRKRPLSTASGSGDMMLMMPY

[2] = biological target: T2, phyBN (residues 1‒908 of phyB) (Arabidopsis, UniProt P14713 1-908, PΦB chromophore covalently bound); assay: pull-down; StrepII-tagged PIF6N (1-64) and its mutants used to pull down Flag-tagged phyBN (Pfr) and its site-directed mutants; SDS-PAGE with Coomassie and zinc-induced fluorescence
T2 construct: Arabidopsis phytochrome B, residues 1-908 (HKRD truncated); also called phyBN-Pfr (red light-irradiated); source: E. coli BL21(DE3), co-expressed with HO1 and HY2, purified; not shown: 3× Flag, N-terminal, kept
T2 sequence (looked up): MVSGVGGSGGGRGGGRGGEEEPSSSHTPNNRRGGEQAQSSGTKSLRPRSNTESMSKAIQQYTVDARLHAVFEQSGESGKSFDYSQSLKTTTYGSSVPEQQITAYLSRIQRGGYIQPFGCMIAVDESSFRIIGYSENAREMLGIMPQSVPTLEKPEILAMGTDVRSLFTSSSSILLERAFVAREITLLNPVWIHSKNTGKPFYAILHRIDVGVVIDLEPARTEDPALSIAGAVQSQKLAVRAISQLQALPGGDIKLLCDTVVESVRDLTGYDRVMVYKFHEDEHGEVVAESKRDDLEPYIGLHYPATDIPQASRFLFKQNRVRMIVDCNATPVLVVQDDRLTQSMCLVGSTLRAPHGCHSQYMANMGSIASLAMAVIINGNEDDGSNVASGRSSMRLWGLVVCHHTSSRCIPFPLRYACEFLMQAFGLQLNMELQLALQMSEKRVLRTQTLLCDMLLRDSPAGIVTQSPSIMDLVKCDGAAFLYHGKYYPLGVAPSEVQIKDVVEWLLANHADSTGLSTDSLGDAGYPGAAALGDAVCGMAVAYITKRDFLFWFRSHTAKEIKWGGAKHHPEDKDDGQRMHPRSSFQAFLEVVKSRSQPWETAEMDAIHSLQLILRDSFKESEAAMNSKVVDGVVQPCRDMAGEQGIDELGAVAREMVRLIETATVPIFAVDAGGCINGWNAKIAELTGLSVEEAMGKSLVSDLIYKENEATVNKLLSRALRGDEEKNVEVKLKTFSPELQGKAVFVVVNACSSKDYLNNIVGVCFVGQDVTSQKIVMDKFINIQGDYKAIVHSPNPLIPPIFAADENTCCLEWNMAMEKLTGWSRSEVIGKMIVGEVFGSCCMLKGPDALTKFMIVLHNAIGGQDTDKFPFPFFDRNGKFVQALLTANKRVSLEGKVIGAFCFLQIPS

[3] = biological target: T1, phytochrome B (phyB), full length …; assay: pull-down; StrepII-tagged PIF6 forms or PIFNs held on Strep-Tactin Sepharose, 3× Flag-phyB in the mixture; red light (665 nm, 800 μmol m^-2 s^-1), 4 °C, 2 h; buffer E (100 mM Tris-HCl pH 8.0, 150 mM NaCl, 1 mM EDTA); eluted with D-desthiobiotin; SDS-PAGE with Coomassie and zinc-induced fluorescence
phyB^Y276H, full length = biological target: T3, phyB^Y276H, full length (Arabidopsis, UniProt P14713 1-1172, Y276H, PΦB chromophore covalently bound); assay: pull-down; StrepII-tagged PIF6 forms or PIFNs held on Strep-Tactin Sepharose, 3× Flag-phyB or phyB^Y276H in the mixture; in the dark, 4 °C, 2 h; buffer E (100 mM Tris-HCl pH 8.0, 150 mM NaCl, 1 mM EDTA); SDS-PAGE with Coomassie and zinc-induced fluorescence
T3 construct: Arabidopsis phytochrome B, residues 1-1172, At2g18790, with Y276H; also called constitutively active mutant phyB^Y276H; source: E. coli BL21(DE3), co-expressed with HO1 and HY2, purified (Ni-NTA, anti-FLAG resin, Source Q); not shown: 3× Flag ([residues removed]), N-terminal, kept
T3 sequence (looked up): T1 sequence (looked up) with Y276H

binding result [1]: binds
binding result [2]: binds
B1: PIF6N (1‒64) (domain or fragment, Arabidopsis, UniProt Q8L5W7 1-64, looked up)
chain: MMFLPTDYCCRLSDQEYMELVFENGQILAKGQRSNVSLHNQRTKSIMDLYEAEYNEDFMKSIIH
notes: Arabidopsis PIF6, residues 1-64 (methods of the pull-down); the legends call PIF6N residues 1-60 and the results R11-S60; Probably in the modified pET15b vector (N-terminal His6, C-terminal StrepII) like the other PIFNs; also called N-terminus of PIF6β; source: E. coli BL21(DE3), purified

binding result [3]: binds
binding result (phyB^Y276H, full length): binds
B2: PIF6αΔC (1‒247) (domain or fragment, Arabidopsis, UniProt Q8L5W7 1-247, looked up)
chain: MMFLPTDYCCRLSDQEYMELVFENGQILAKGQRSNVSLHNQRTKSIMDLYEAEYNEDFMKSIIHGGGGAITNLGDTQVVPQSHVAAAHETNMLESNKHVDDSETLKASSSKRMMVDYHNRKKIKFIPPDEQSVVADRSFKLGFDTSSVGFTEDSEGSMYLSSSLDDESDDARPQVPARTRKALVKRKRNAEAYNSPERNQRNDINKKMRTLQNLLPNSHKDDNESMLDEAINYMTNLQLQVQMMTMG
notes: Arabidopsis PIF6α, residues 1-247; also called PIF6ΔC; C-terminus-truncated PIF6α; source: E. coli BL21(DE3), purified (Ni-NTA, Strep-Tactin, Source Q); not shown: StrepII, C-terminal, kept
